Our source for the protein stability index values is the supplement of paper PMC10567573.

B1: PLK2 (parent)
chain: MELLRTITYQPAASTKMCEQALGK
B2: NEK8 (parent)
chain: YTFGSNQHGQLGTNTRRGSRAPCK
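Further: lentivirally expressed fusions sorted by FACS into six bins by GFP to DsRed ratio, PSI derived from sequencing read proportions per bin multiplied by bin number.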

In one series the parent is B1. The experiment in a line: protein stability index of a GFP-peptide fusion (GPS, HEK-293T) (PSI 1-6); higher = more stable. The settings on record: c terminus: a fixed tail appended.
With TELLRTITYQPAASTKMCEQALGK [M1T], the protein stability index worked out at 3.74.
On the same count and under the same terms, then PELLRTITYQPAASTKMCEQALGK [M1P], with 4.09; and YELLRTITYQPAASTKMCEQALGK [M1Y], with 2.54; and EELLRTITYQPAASTKMCEQALGK [M1E], with 4.07.
On the same count and under the same terms, with DELLRTITYQPAASTKMCEQALGK [M1D] the figure was 3.64; with RELLRTITYQPAASTKMCEQALGK [M1R], 3.04.
For IELLRTITYQPAASTKMCEQALGK [M1I], the protein stability index turned out to be 2.03.
The same measure, in the same setting: with FELLRTITYQPAASTKMCEQALGK [M1F] the figure was 2.04; with QELLRTITYQPAASTKMCEQALGK [M1Q], 3.84.
The same measure, in the same setting: then AELLRTITYQPAASTKMCEQALGK [M1A], with 2.18.
Still for that read-out and setting: then KELLRTITYQPAASTKMCEQALGK [M1K], with 3.84; and HELLRTITYQPAASTKMCEQALGK [M1H], with 3.67.
With NELLRTITYQPAASTKMCEQALGK [M1N], the protein stability index was 4.1.
Same read-out and setting: then VELLRTITYQPAASTKMCEQALGK [M1V], with 2.23.
The same measure, in the same setting: with GELLRTITYQPAASTKMCEQALGK [M1G] the figure was 3.84; with WELLRTITYQPAASTKMCEQALGK [M1W], 2.16; with SELLRTITYQPAASTKMCEQALGK [M1S], 2.17.
On to CELLRTITYQPAASTKMCEQALGK [M1C], for which the protein stability index was 1.51.
Take LELLRTITYQPAASTKMCEQALGK [M1L]: the protein stability index amounted to 2.37.
The same measure, in the same setting: then MDLLRTITYQPAASTKMCEQALGK [E2D], with 2.75; and MRLLRTITYQPAASTKMCEQALGK [E2R], with 2.15.
Turning to MALLRTITYQPAASTKMCEQALGK [E2A], the protein stability index worked out at 1.79.
On the same count and under the same terms, then MGLLRTITYQPAASTKMCEQALGK [E2G], with 2.69; and MQLLRTITYQPAASTKMCEQALGK [E2Q], with 1.91; and MCLLRTITYQPAASTKMCEQALGK [E2C], with 1.93.
For the variant MNLLRTITYQPAASTKMCEQALGK [E2N], the protein stability index came to 2.61.
Still for that read-out and setting: with MLLLRTITYQPAASTKMCEQALGK [E2L] the figure was 2.15; with MPLLRTITYQPAASTKMCEQALGK [E2P], 2.73.
Same read-out and setting: then MILLRTITYQPAASTKMCEQALGK [E2I], with 1.51; and MHLLRTITYQPAASTKMCEQALGK [E2H], with 2.05; and MMLLRTITYQPAASTKMCEQALGK [E2M], with 2.09.
Still for that read-out and setting: then MFLLRTITYQPAASTKMCEQALGK [E2F], with 1.69.
Take MKLLRTITYQPAASTKMCEQALGK [E2K]: the protein stability index amounted to 2.7.

In another series the parent is B2. The series is described as above. The settings on record: c terminus: a fixed tail appended.
For the variant YTFGSNQHGQLGTNTRRGSRAPCT [K24T], the protein stability index worked out at 3.43.
Same read-out and setting: then YTFGSNQHGQLGTNTRRGSRAPCQ [K24Q], with 3.79; and YTFGSNQHGQLGTNTRRGSRAPCP [K24P], with 4.09.
Turning to YTFGSNQHGQLGTNTRRGSRAPCC [K24C], the protein stability index came to 2.72.
Consider YTFGSNQHGQLGTNTRRGSRAPCI [K24I], for which the protein stability index amounted to 3.08.
Turning to YTFGSNQHGQLGTNTRRGSRAPCE [K24E], the protein stability index is 3.77.
The same measure, in the same setting: then YTFGSNQHGQLGTNTRRGSRAPCA [K24A], with 3.45; and YTFGSNQHGQLGTNTRRGSRAPCS [K24S], with 3.24; and YTFGSNQHGQLGTNTRRGSRAPCN [K24N], with 3.2.
On the same count and under the same terms, with YTFGSNQHGQLGTNTRRGSRAPCR [K24R] the figure was 3.44; with YTFGSNQHGQLGTNTRRGSRAPCL [K24L], 3.81.
In the case of YTFGSNQHGQLGTNTRRGSRAPCM [K24M], the protein stability index came out at 2.94.
Consider YTFGSNQHGQLGTNTRRGSRAPCG [K24G], for which the protein stability index amounted to 4.29.
On to YTFGSNQHGQLGTNTRRGSRAPCH [K24H], for which the protein stability index was 3.52.
For YTFGSNQHGQLGTNTRRGSRAPCV [K24V], the protein stability index is 3.68.
On the same count and under the same terms, with YTFGSNQHGQLGTNTRRGSRAPCW [K24W] the figure was 2.59; with YTFGSNQHGQLGTNTRRGSRAPCF [K24F], 2.93; with YTFGSNQHGQLGTNTRRGSRAPCD [K24D], 3.91.
With YTFGSNQHGQLGTNTRRGSRAPCY [K24Y], the protein stability index stood at 2.63.
On the same count and under the same terms, with YTFGSNQHGQLGTNTTRGSRAPCK [R16T] the figure was 4.21; with YTFGSNQHGQLGTNTVRGSRAPCK [R16V], 3.99.
The same measure, in the same setting: with YTFGSNQHGQLGTNTYRGSRAPCK [R16Y] the figure was 3.37; with YTFGSNQHGQLGTNTWRGSRAPCK [R16W], 1.8.
In the case of YTFGSNQHGQLGTNTRRGSRIPCK [A21I], the protein stability index came to 3.69.
Same read-out and setting: then YTFGSNQHGQLGTNTRRGSRQPCK [A21Q], with 3.89; and YTFGSNQHGQLGTNTRRGSRCPCK [A21C], with 2.94.
On the same count and under the same terms, then YTFGSNQHGQLGTNTRRGSRNPCK [A21N], with 4.1; and YTFGSNQHGQLGTNTRRGSRFPCK [A21F], with 3.54; and YTFGSNQHGQLGTNTRRGSRKPCK [A21K], with 4.24.
On the same count and under the same terms, with YTFGSNQHGQLGTNTRRGSRDPCK [A21D] the figure was 4.11.
YTFGSNQHGQLGTNTRRGSRMPCK [A21M]: the protein stability index was determined as 3.5.
On the same count and under the same terms, then YTFGSNQHGQLGTNTRRGSREPCK [A21E], with 4.32; and YTFGSNQHGQLGTNTRRGSRGPCK [A21G], with 3.7.
Still for that read-out and setting: then YTFGSNQHGQLGTNTRRGSRSPCK [A21S], with 3.84; and YTFGSNQHGQLGTNTRRGSRTPCK [A21T], with 4.3; and YTFGSNQHGQLGTNTRRGSRVPCK [A21V], with 3.84.
On the same count and under the same terms, with YTFGSNQHGQLGTNTRRGSRPPCK [A21P] the figure was 3.69; with YTFGSNQHGQLGTNTRRGSRYPCK [A21Y], 3.38; with YTFGSNQHGQLGTNTRRGSRRPCK [A21R], 3.53.
In the case of YTFGSNQHGQLGTNTRRGSRHPCK [A21H], the protein stability index was 3.79.
Turning to YTFGSNQHGQLGTNTRRGSRLPCK [A21L], the protein stability index came to 3.54.
Same read-out and setting: then YTFGSNQHGQLGTNTRRGSRWPCK [A21W], with 2.69; and YTFGSNQHGQLGTNTRRGQRAPCK [S19Q], with 4.02; and YTFGSNQHGQLGTNTRRGCRAPCK [S19C], with 3.08.
On the same count and under the same terms, with YTFGSNQHGQLGTNTRRGKRAPCK [S19K] the figure was 3.77.
Still for that read-out and setting: then YTFGSNQHGQLGTNTRRGERAPCK [S19E], with 3.72; and YTFGSNQHGQLGTNTRRGGRAPCK [S19G], with 3.91; and YTFGSNQHGQLGTNTRRGPRAPCK [S19P], with 3.89.
For the variant YTFGSNQHGQLGTNTRRGARAPCK [S19A], the protein stability index stood at 3.95.
Still for that read-out and setting: with YTFGSNQHGQLGTNTRRGWRAPCK [S19W] the figure was 2.8; with YTFGSNQHGQLGTNTRRGLRAPCK [S19L], 3.82; with YTFGSNQHGQLGTNTRRGMRAPCK [S19M], 4.05.
The same measure, in the same setting: with YTFGSNQHGQLGTNTRRGNRAPCK [S19N] the figure was 3.86.
Same read-out and setting: with YTFGSNQHGQLGTNTRRGTRAPCK [S19T] the figure was 3.81.
Regarding YTFGSNQHGQLGTNTRRGDRAPCK [S19D], the protein stability index was determined as 4.18.
Same read-out and setting: then YTFGSNQHGQLGTNTRRGIRAPCK [S19I], with 3.33; and YTFGSNQHGQLGTNTRRGVRAPCK [S19V], with 3.77; and YTFGSNQHGQLGTNTRRGYRAPCK [S19Y], with 3.52.
On the same count and under the same terms, with YTFGSNQHGQLGTNTRRGRRAPCK [S19R] the figure was 3.91.
With YTFGSNQHGQLGTNTRRGHRAPCK [S19H], the protein stability index came to 3.95.
Same read-out and setting: with YTFGSNQHGQLGTNTRRGFRAPCK [S19F] the figure was 3.03.
